Source: paper PMC3626704 (BMC Biochemistry, 2013)

T1: 6-Helix-Fd (HIV-1 gp41 (HXB2-like, printed sequence), stabilised)
T1 construct: also called post-fusion six-helix bundle mimic
T1 chain: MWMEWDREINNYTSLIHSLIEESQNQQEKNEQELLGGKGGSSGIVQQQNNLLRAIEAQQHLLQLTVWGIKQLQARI


What was measured:
Details in all cases: one partner purified
5-Helix [1] = molecular target: T2, 5-Helix (HIV-1 group M subtype B, HXB2 (gp41 …, stabilised)); test: ELISA; competitive phage ELISA, on-phage bivalent scFv: binding to immobilised 5-Helix inhibited by free 5-Helix or free 6-Helix-Fd (concentrations for the trimer); apparent
T2 construct: also called designed protein based on HIV-1 gp41

6-Helix-Fd = molecular target: T1, 6-Helix-Fd; test: as above
5-Helix [2] = molecular target: T2, 5-Helix; test: ELISA

Row | Binder | IC50 (5-Helix [1]) | IC50 (6-Helix-Fd) | F_competitive (signal with 40 nM free 5-Helix / signal without) (5-Helix [2]) | phage ELISA signal OD450 (5-Helix [2])
1 | 25C10 bivalent scFv on phage (scFv, V domains shown) VH: QVQLVQSGAEVRKPGASVKVSCKASGDTFSSYAISWVRQAPGQGLEWMGGIIPIFGTANYAQAFQGRVTITANESTSTAYMELSSLRSEDTAIYYCARDNPTLLGSDYWGAGTLVTVSS VL: DIQMTQSPSTLSASIGDRVTITCRASENIYGNLAWYQQKPGKAPKLLISRASRLASGAPSRFSGSGSGTDFTLTISSLQPDDFATYYCQQRYTYPLTFGGGTKLEIK | 1.8 nM | 28 nM | 0.1 fraction | 3.2 OD450
2 | 25F10 bivalent scFv on phage (scFv, V domains shown) VH: QVQLVQSGAEVRKPGASVKVSCKASGDTFSSYAISWVRQAPGQGLEWMGGIIPIFGTANYAQAFQGRVTITANESTSTAYMELSSLRSEDTAIYYCARDNPTLLGSDYWGAGTLVTVSS VL: DIQMTQSPSTLSASIGDRVTITCRASEGIHNRLAWYQQKPGKAPKLLISHASNLASGAPSRFSGSGSGTDFTLTISSLQPDDFATYYCQQYSNYPLTFGGGTKLEIK | 0.2 nM | 22 nM | 0.1 fraction | 1.7 OD450
3 | 25D3 bivalent scFv on phage (scFv, V domains shown) VH: QVQLVQSGAEVRKPGASVKVSCKASGDTFSSYAISWVRQAPGQGLEWMGGIIPIFGTANYAQAFQGRVTITANESTSTAYMELSSLRSEDTAIYYCARDNPTLLGSDYWGAGTLVTVSS VL: DIQMTQSPSTLSASIGDRVTITCRASENIHRRLAWYQQKPGKAPKLLIYSAYSLASGAPSRFSGSGSGTDFTLTISSLQPDDFATYYCQQNSDYPHTFGGGTKLEIK | 17 nM | 170 nM | 0.1 fraction | 1.6 OD450
4 | 25B6 bivalent scFv on phage (scFv, V domains shown) VH: QVQLVQSGAEVRKPGASVKVSCKASGDTFSSYAISWVRQAPGQGLEWMGGIIPIFGTANYAQAFQGRVTITANESTSTAYMELSSLRSEDTAIYYCARDNPTLLGSDYWGAGTLVTVSS VL: DIQMTQSPSTLSASIGDRVTITCRASENIRSGLAWYQQKPGKAPKLLIYRASRLASGAPSRFSGSGSGTDFTLTISSLQPDDFATYYCQQYDDYPHTFGGGTKLEIK | 0.3 nM | 23 nM | 0.1 fraction | 1.4 OD450
5 | 25F1 bivalent scFv on phage (scFv, V domains shown) VH: QVQLVQSGAEVRKPGASVKVSCKASGDTFSSYAISWVRQAPGQGLEWMGGIIPIFGTANYAQAFQGRVTITANESTSTAYMELSSLRSEDTAIYYCARDNPTLLGSDYWGAGTLVTVSS VL: DIQMTQSPSTLSASIGDRVTITCRASEGINNSLAWYQQKPGKAPKLLISRASRLASGAPSRFSGSGSGTDFTLTISSLQPDDFATYYCQQYSSTPHTFGGGTKLEIK | 0.9 nM | 40 nM | 0.1 fraction | 2.3 OD450
6 | 25D8 bivalent scFv on phage (scFv, V domains shown) VH: QVQLVQSGAEVRKPGASVKVSCKASGDTFSSYAISWVRQAPGQGLEWMGGIIPIFGTANYAQAFQGRVTITANESTSTAYMELSSLRSEDTAIYYCARDNPTLLGSDYWGAGTLVTVSS VL: DIQMTQSPSTLSASIGDRVTITCRASEGISSNLAWYQQKPGKAPKLLISRAYRLASGAPSRFSGSGSGTDFTLTISSLQPDDFATYYCQQRATYPLTFGGGTKLEIK | 5.8 nM | ~3000 nM | 0.2 fraction | 3.2 OD450
7 | 25C12 bivalent scFv on phage (scFv, V domains shown) VH: QVQLVQSGAEVRKPGASVKVSCKASGDTFSSYAISWVRQAPGQGLEWMGGIIPIFGTANYAQAFQGRVTITANESTSTAYMELSSLRSEDTAIYYCARDNPTLLGSDYWGAGTLVTVSS VL: DIQMTQSPSTLSASIGDRVTITCRASEDISSVLAWYQQKPGKAPKLLIYNASRLASGAPSRFSGSGSGTDFTLTISSLQPDDFATYYCQQRANNPHTFGGGTKLEIK | 100 nM | ~1000 nM | 0.3 fraction | 2.2 OD450
8 | 25G8 bivalent scFv on phage (scFv, V domains shown) VH: QVQLVQSGAEVRKPGASVKVSCKASGDTFSSYAISWVRQAPGQGLEWMGGIIPIFGTANYAQAFQGRVTITANESTSTAYMELSSLRSEDTAIYYCARDNPTLLGSDYWGAGTLVTVSS VL: DIQMTQSPSTLSASIGDRVTITCRASESIGRSLAWYQQKPGKAPKLLIYRASRLASGAPSRFSGSGSGTDFTLTISSLQPDDFATYYCQQSSTTPLTFGGGTKLEIK | 7.2 nM | 300 nM | 0.1 fraction | 2.1 OD450
9 | 25A10 bivalent scFv on phage (scFv, V domains shown) VH: QVQLVQSGAEVRKPGASVKVSCKASGDTFSSYAISWVRQAPGQGLEWMGGIIPIFGTANYAQAFQGRVTITANESTSTAYMELSSLRSEDTAIYYCARDNPTLLGSDYWGAGTLVTVSS VL: DIQMTQSPSTLSASIGDRVTITCRASESISHNLAWYQQKPGKAPKLLISNASRLASGAPSRFSGSGSGTDFTLTISSLQPDDFATYYCQQYSNYPLTFGGGTKLEIK | 1.6 nM | 260 nM | 0.1 fraction | 3.2 OD450
10 | 25A12 bivalent scFv on phage (scFv, V domains shown) VH: QVQLVQSGAEVRKPGASVKVSCKASGDTFSSYAISWVRQAPGQGLEWMGGIIPIFGTANYAQAFQGRVTITANESTSTAYMELSSLRSEDTAIYYCARDNPTLLGSDYWGAGTLVTVSS VL: DIQMTQSPSTLSASIGDRVTITCRASEGIHRYLAWYQQKPGKAPKLLIYHASRLASGAPSRFSGSGSGTDFTLTISSLQPDDFATYYCQQRANYPYTFGGGTKLEIK | 2.2 nM | 220 nM | 0.1 fraction | 3.2 OD450
11 | 25D6 bivalent scFv on phage (scFv, V domains shown) VH: QVQLVQSGAEVRKPGASVKVSCKASGDTFSSYAISWVRQAPGQGLEWMGGIIPIFGTANYAQAFQGRVTITANESTSTAYMELSSLRSEDTAIYYCARDNPTLLGSDYWGAGTLVTVSS VL: DIQMTQSPSTLSASIGDRVTITCRASENIYSNLAWYQQKPGKAPKLLISSASRLASGAPSRFSGSGSGTDFTLTISSLQPDDFATYYCQQNSNNPHTFGGGTKLEIK | 0.5 nM | ~80 nM | 0.1 fraction | 1.6 OD450
12 | 25C6 bivalent scFv on phage (scFv, V domains shown) VH: QVQLVQSGAEVRKPGASVKVSCKASGDTFSSYAISWVRQAPGQGLEWMGGIIPIFGTANYAQAFQGRVTITANESTSTAYMELSSLRSEDTAIYYCARDNPTLLGSDYWGAGTLVTVSS VL: DIQMTQSPSTLSASIGDRVTITCRASENISSRLAWYQQKPGKAPKLLISNAYHLASGAPSRFSGSGSGTDFTLTISSLQPDDFATYYCQQRSNYPHTFGGGTKLEIK | 32 nM | ~1000 nM | 0.2 fraction | 1.8 OD450
13 | 25D9 bivalent scFv on phage (scFv, V domains shown) VH: QVQLVQSGAEVRKPGASVKVSCKASGDTFSSYAISWVRQAPGQGLEWMGGIIPIFGTANYAQAFQGRVTITANESTSTAYMELSSLRSEDTAIYYCARDNPTLLGSDYWGAGTLVTVSS VL: DIQMTQSPSTLSASIGDRVTITCRASEDILGRLAWYQQKPGKAPKLLIYRASRLASGAPSRFSGSGSGTDFTLTISSLQPDDFATYYCQQRANYPLTFGGGTKLEIK | 1.7 nM | 230 nM | 0.2 fraction | 3 OD450
